Data from article PMC9736018.

target: T1, PA3973-His6 (Pseudomonas aeruginosa PAO1161) (UniProt Q9HX43); assay: EMSA; conditions: 10 mM Tris-HCl pH 8.5, 10 mM MgCl2, 100 mM KCl, 0.1 mg/mL BSA; ~100 ng DNA plus ~300 ng NS competitor in 20 uL; 23 C, 30 min; 1.5% agarose, 0.5x TBE, 4 C …
T1 sequence: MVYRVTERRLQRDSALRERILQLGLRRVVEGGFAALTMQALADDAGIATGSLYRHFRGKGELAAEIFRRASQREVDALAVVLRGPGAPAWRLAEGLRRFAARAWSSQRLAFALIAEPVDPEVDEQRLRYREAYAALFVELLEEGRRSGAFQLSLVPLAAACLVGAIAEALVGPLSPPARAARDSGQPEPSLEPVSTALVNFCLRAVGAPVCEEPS

Q: How did the binding turn out when “GAGAATTCGCATGCCAATGGCGGCGAGGAAAGCGCCTGCGGCTGGTGCCGTGACAAGTGGGGCATCTCCTGGCAGATCACCCCGCGCGTACTCAGCGAAGCCATCGCCAGCCCCGACCGCGCGGCGGCCAGGCGCGCCTTCGAGGCGATGATGACGATGGGCAGGATCGATATCGCCACCATAGAGAAGGCCTTCAAGGGCTGAACGCCCCAACGCCTTGCAAAGGAGTCACGAAGGATCCGC (double strand) [PA2722p]” was run?
A: binds

Q: How did the binding turn out when “GAGGATCCGGGGCGGGCTCCGGAGGGTGTTCAGCTCCTAGCATAGCGCCCTCGCCTTGCGCCGTTCAGACCTTCGCGCAGCGCCCCTCGCGGCCGCGCGCCAGTTCCCTGTTGTCCTGGTCGTAGAGCTTCGCCCAGGGACGGAAGCCGATGTGCCCGGCCTCCAGGCGGTAGCGCTGGCCGGCGCTGAAGTCCTTGAACTTGAGGTTGAGCTGGCAATCGCGCCAGAGCGGGCTGTCCACGGGGCCGGCATGCGAATTCGC (double strand) [PA0061p]” was run?
A: binds

Q: “GAGGATCCGTGGGACTCCTTGGGTCGGGCCGGTGGCGAATAGCCAGGGGGACGTCGGGCGCACAAGGTACTGCCAGAAAAACGCTAATGCAAATAATTATCAAATGGATTCAGATATGCGTTTTGTGGCAAAGTTCACCTGTTTTTGCGCGTAGCGCGACCGAACCGGATATGCCCGAGGAACCGTCGATGAGCAGCACTCCCAGCCTTTCCCATTCCCCTGCCGAGCGCATGCGAATTCGC (double strand) [PA4710p]” was tested. Which binding did it give?
A: binds more weakly

Q: Which binding does the source give for “GCGAATTCGCATGCCACCACGGTTGATCCATAGGCTTCGGTCCGCGCTGCGGTGGCGCGGGCGGCGCCCATGATACCGATTCCCCGGGGCGGTGGGGCGCCGCGGAAGGGACGGGCGTAGGAGATTTCATATTTCGCAATGAGGAATCTATTCCCCATTGAGGAATGTTCTGGTGGCGTGATAGCCTGAATGGAAAAGAGAGTCATTCCCATTTGGAGAAGATCCTGGATCCGC (double strand) [PA4156p]” here?
A: binds more weakly

Q: With “GCGAATTCGCATGCGATGGGCGGGAATTGTTGGTCGATTTATGACTTGTAGTTTCTCTGTCGTATGCCTTCAGAACTTGTTGAAGGCTTTTCGGCTCGATTGCACAATGCCGCGCCAAGGTTCGTTCGCGAATCGCGGTATGTGAGCTAGACCTCCGCAGCCGGTGCGCCATCCGCAGTGCCCCGGACTACTCGACAATCACGCAGGAGATTCGTGAGGATCCGC (double strand) [PA0195p]” as the sequence, how does the binding read?
A: binds

Q: “GCGAATTCGCATGCGGCGCTGGAGATTCCCGGCGAGGGCGCGGTGGGCATGTGCTGGCGCGACGAACCGCACCGCGACCGTGCCAGCGAAGACCTGCTGGCCTGCCTGCGCGAAGGCGCGGCGGCCGAGTAGGGCGCCGGCCGGCGGGTGCTATTGCAAAAAGGCCGCGGCTTCTCGACAATGCGATTCATTATCATTCATGTGTCGCCCCGACTTTCCCATGGGATCCGC (double strand) [PA2468p]” was tested. Which binding did it give?
A: binds more weakly
